Data taken from PMC5894356 (Structure (London, England : 1993), 2018).

Target: the molecule itself
Assay: crystal structure

B1: S. cerevisiae 5-aminolevulinic acid synthase (Hem1), PLP-cleaved ALAS 58-548 (enzyme)
chain: not shown
  stoichiometry N: 2
